Source: paper PMC7565984, “A Phosphorylation-Induced Switch in the Nuclear Localization Sequence of the Intrinsically Disordered NUPR1 Hampers Binding to Importin” (Biomolecules, 2020)
Where a SMILES comes first, the peptide text is derived from it. [ ]: non-standard residue; d: D form. pT = C[C@@H](OP(=O)(O)O)[C@H](N)C(=O)O

Key:
[1] = target: T1, human importin α3 (Impα3) (Homo sapiens, UniProt O00629); assay: ITC binding of NLS-NUPR1 peptides / NUPR1 to Impα3; conditions: ITC, 298 K, Tris 50 mM pH 8; for ΔH (binding enthalpy), Impα3: absolute error 0.5 kcal/mol
T1 construct: although the IBB region maintains its independence within the whole Impα3 in terms of conformation; His-tag (N); made in house; host or cells: Escherichia coli BL21 (DE3)
T1 sequence (O00629 1-521): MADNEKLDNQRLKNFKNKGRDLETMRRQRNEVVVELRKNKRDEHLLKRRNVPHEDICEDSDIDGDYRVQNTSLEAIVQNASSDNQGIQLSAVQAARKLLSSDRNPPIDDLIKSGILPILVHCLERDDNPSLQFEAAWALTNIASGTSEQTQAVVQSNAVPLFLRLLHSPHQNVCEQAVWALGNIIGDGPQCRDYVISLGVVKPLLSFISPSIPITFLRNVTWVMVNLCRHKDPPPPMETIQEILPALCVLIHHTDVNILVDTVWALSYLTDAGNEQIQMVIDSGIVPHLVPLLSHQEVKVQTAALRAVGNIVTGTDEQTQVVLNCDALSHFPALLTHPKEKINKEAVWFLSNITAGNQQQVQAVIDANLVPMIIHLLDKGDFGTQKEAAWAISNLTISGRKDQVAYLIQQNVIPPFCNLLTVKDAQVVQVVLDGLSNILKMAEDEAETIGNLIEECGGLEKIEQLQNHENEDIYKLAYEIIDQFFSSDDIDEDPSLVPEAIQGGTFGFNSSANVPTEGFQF
Experimental: (§1) The experimental set-up and data processing of ITC experiments has been described previously. Calorimetric titrations, performed in an Auto-iTC200 calorimeter (MicroCal, Malvern-Panalytical, Malvern, UK) consisted of series of 19 2-μL injections, with 150 s time spacing and a 750-rpm stirring speed. Impα3 or ΔImpα3 (at 10–20 μM) was loaded into the calorimetric cell and NLS-NUPR1 peptides in the syringe (150–300 μM); all solutions were prepared in buffer Tris 50 mM, pH 8. […] The binding affinity (association constant) and the binding enthalpy were estimated through a least-squares nonlinear regression data analysis, from which the Gibbs energy and the entropic contribution to the binding were calculated using well-known thermodynamic relationships. Since the binding stoichiometry is constrained by the model, the parameter n provides a fraction of the active or binding competent protein. Experiments for each peptide and importin species were performed, at least, in duplicates.

[2] = Translational diffusion by NMR DOSY (hydrodynamic properties); format: physicochemical; conditions: for D, translational diffusion coefficient: 283 K, pH 7.2, 50-mM deuterated Tris, 100% D2O, peptide 120 μM; for Rh, hydrodynamic radius from D: from the translational diffusion coefficient of dioxane (Rh = 2.12 Å) added to each sample
Experimental: Concentrations of peptides in all DOSY experiments were 120 μM, and 128 scans, where the gradient strength was varied, were acquired for each curve. Translational self-diffusion measurements were performed with the pulsed gradient spin-echo sequence in the presence of 100% D2O. Experimental details have been described elsewhere. Briefly, the gradient strength was varied in sixteen linear steps between 2% and 95% of the total power of the gradient coil. The gradient strength was previously calibrated by using the value of the translational diffusion coefficient, D, for the residual proton water line in a sample containing 100% D2O in a 5-mm tube [34]. In our experiments for each peptide, the duration of the gradient was 2.25 ms, the time between the two pulse gradients in the pulse sequence was set to 200 ms, and the recovery delay between the bipolar gradients was set to 100 μs. The methyl groups with signals between 1.0 and 0.80 ppm were used for integration. Fitting of the exponential curves obtained from experimental data was carried out with KaleidaGraph (Synergy Software, Version 3.5), as described. A final concentration of 1% of dioxane, which was assumed to have a hydrodynamic radius Rh = 2.12 Å [34], was added to the solutions of each of the peptides to have a comparison for estimating their sizes.

[3] = target: T2, ΔImpα3 (importin α3 without the IBB domain, residues 64-521) (Homo sapiens, UniProt O00629); assay: ITC binding of NLS-NUPR1 peptides / NUPR1 to ΔImpα3; conditions: ITC, 298 K, Tris 50 mM pH 8; for ΔH (binding enthalpy), ΔImpα3: absolute error 0.5 kcal/mol; for −TΔS (entropic contribution), ΔImpα3: calculated from Kd and ΔH, absolute error 0.7 kcal/mol
T2 construct: The His-tagged ΔImpα3 (residues 64-521) was obtained from BL21 (DE3) cells as described; His-tag; made in house; host or cells: Escherichia coli BL21 (DE3)
T2 sequence (O00629 64-521): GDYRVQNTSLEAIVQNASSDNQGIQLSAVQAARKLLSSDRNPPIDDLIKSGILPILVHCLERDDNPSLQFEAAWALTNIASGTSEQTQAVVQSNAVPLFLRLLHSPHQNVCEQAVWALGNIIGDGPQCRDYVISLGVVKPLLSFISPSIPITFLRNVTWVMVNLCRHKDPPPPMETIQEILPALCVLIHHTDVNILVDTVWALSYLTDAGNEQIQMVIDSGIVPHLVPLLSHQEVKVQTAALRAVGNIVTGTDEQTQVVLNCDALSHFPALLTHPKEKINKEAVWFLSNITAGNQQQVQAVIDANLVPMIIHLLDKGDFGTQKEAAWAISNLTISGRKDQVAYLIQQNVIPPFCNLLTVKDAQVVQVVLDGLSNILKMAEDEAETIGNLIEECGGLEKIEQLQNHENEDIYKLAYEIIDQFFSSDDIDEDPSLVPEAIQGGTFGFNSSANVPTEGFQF
Experimental: as §1

[4] = target: T3, human importin α3 (intact, with the IBB domain) (human, UniProt O00629 1-521); assay: ITC; Impα3 or ΔImpα3 (10–20 μM) in the cell, NLS-NUPR1 peptide (150–300 μM) in the syringe; Tris 50 mM, pH 8; 298 K; single ligand binding site (1:1) model, n gives the fraction of binding-competent protein; conditions: both partners purified
T3 construct: human importin α3 (KPNA4), intact protein with the IBB domain; codon-optimized synthetic DNA in the vector pHTP1; also called Impα3; KPNA4; source: E. coli BL21 (DE3), purified (as for ΔImpα3)
T3 sequence (looked up): T1 sequence (O00629 1-521)

[5] = target: T4, truncated importin α3 without the IBB domain (residues 64-521) (human, UniProt O00629 64-521); assay: as above; conditions: both partners purified
T4 construct: human importin α3 (KPNA4) without the IBB domain, residues 64-521; also called ΔImpα3; ΔImportin
T4 sequence (looked up): T2 sequence (O00629 64-521)

In the case of `CC(=O)N[C@@H](Cc1ccc(O)cc1)C(=O)N[C@H](C(=O)N[C@@H](CC(N)=O)C(=O)N[C@@H](CCCNC(=N)N)C(=O)N1CCC[C@H]1C(=O)N[C@@H](CO)C(=O)N1CCC[C@H]1C(=O)NCC(=O)NCC(=O)N[C@@H](Cc1c[nH]cn1)C(=O)N[C@@H](CCC(=O)O)C(=O)N[C@@H](CCCNC(=N)N)C(=O)N[C@@H](C)C(=O)N[C@@H](CC(C)C)C(=O)N[C@H](C(=O)N[C@@H](CCC(=O)O)C(=O)N[C@@H](C)C(=O)N[C@@H](CC(C)C)C(=O)N[C@@H](CCC(N)=O)C(=O)N[C@@H](CC(N)=O)C(=O)N[C@@H](CO)C(=O)N[C@@H](CCC(=O)O)C(N)=O)C(C)C)[C@@H](C)O` [K65AT68EK69A] (Ac-YTNRPSPGGHERALVEALQNSE-NH2), the “ΔH (binding enthalpy), Impα3” value [1] is reported as -16.3 kcal/mol, the Kd ([1]; importin 10–20 μM in cell, peptide 150–300 μM in syringe, 1:1 model, at least duplicates, relative error 30%, read-out: Kd (dissociation constant), Impα3) is reported as 27 µM and the “D, translational diffusion coefficient” value [2] is reported as 2.4 ± 0.2 cm^2 s^−1 × 10^6. For the same molecule, the “Rh, hydrodynamic radius from D” value [2] was 9 ± 2 Å, the “ΔH (binding enthalpy), ΔImpα3” value [3] was -28.5 kcal/mol and the “−TΔS (entropic contribution), ΔImpα3” value [3] was 22.2 kcal/mol.

With `CC(=O)N[C@@H](Cc1ccc(O)cc1)C(=O)N[C@H](C(=O)N[C@@H](CC(N)=O)C(=O)N[C@@H](CCCNC(=N)N)C(=O)N1CCC[C@H]1C(=O)N[C@@H](CO)C(=O)N1CCC[C@H]1C(=O)NCC(=O)NCC(=O)N[C@@H](Cc1c[nH]cn1)C(=O)N[C@@H](CCC(=O)O)C(=O)N[C@@H](CCCNC(=N)N)C(=O)N[C@@H](C)C(=O)N[C@@H](CC(C)C)C(=O)N[C@H](C(=O)N[C@@H](CCC(=O)O)C(=O)N[C@@H](CCCCN)C(=O)N[C@@H](CC(C)C)C(=O)N[C@@H](CCC(N)=O)C(=O)N[C@@H](CC(N)=O)C(=O)N[C@@H](CO)C(=O)N[C@@H](CCC(=O)O)C(N)=O)C(C)C)[C@@H](C)O` [K65AT68E] (Ac-YTNRPSPGGHERALVEKLQNSE-NH2) the “ΔH (binding enthalpy), Impα3” value [1] was -7.8 kcal/mol, the “−TΔS (entropic contribution), Impα3” value ([1]; calculated from Kd and ΔH, absolute error 0.7 kcal/mol) was 1.4 kcal/mol and the “D, translational diffusion coefficient” value [2] was 1.76 ± 0.06 cm^2 s^−1 × 10^6. The “Rh, hydrodynamic radius from D” value [2] was 12 ± 1 Å, the “ΔH (binding enthalpy), ΔImpα3” value [3] was -17.9 kcal/mol and the “−TΔS (entropic contribution), ΔImpα3” value [3] was 11.3 kcal/mol.

B1: NLS-NUPR1 peptide phosphorylated at Thr68 (peptide)
peptide: Ac-YTNRPSPGGHERKLV[pT]KLQNSE-NH2
SMILES: CC(=O)N[C@@H](Cc1ccc(O)cc1)C(=O)N[C@H](C(=O)N[C@@H](CC(N)=O)C(=O)N[C@@H](CCCNC(=N)N)C(=O)N1CCC[C@H]1C(=O)N[C@@H](CO)C(=O)N1CCC[C@H]1C(=O)NCC(=O)NCC(=O)N[C@@H](Cc1c[nH]cn1)C(=O)N[C@@H](CCC(=O)O)C(=O)N[C@@H](CCCNC(=N)N)C(=O)N[C@@H](CCCCN)C(=O)N[C@@H](CC(C)C)C(=O)N[C@H](C(=O)N[C@H](C(=O)N[C@@H](CCCCN)C(=O)N[C@@H](CC(C)C)C(=O)N[C@@H](CCC(N)=O)C(=O)N[C@@H](CC(N)=O)C(=O)N[C@@H](CO)C(=O)N[C@@H](CCC(=O)O)C(N)=O)[C@@H](C)OP(=O)(O)O)C(C)C)[C@@H](C)O
notes: tyrosine introduced at the N terminus for absorbance measurements; not a residue of NUPR1; Thr68 is printed as pT (phospho-threonine); also called pT68; pT68 peptide; source: synthetic peptide (NZYtech, purity 95%)
For B1, the Kd [4] was 27 µM, the dH [4] was -14.8 kcal/mol and the Kd [5] was 29 µM. It also gave a dH [5] of -28.2 kcal/mol.

B2: wild-type NLS-NUPR1 peptide (residues 54-74 of NUPR1 with an added N-terminal Tyr) (peptide)
peptide: Ac-YTNRPSPGGHERKLVTKLQNSE-NH2
notes: tyrosine introduced at the N terminus for absorbance measurements; not a residue of NUPR1; The added Tyr stands where NUPR1 has residue 53; also called wt; wt peptide; source: synthetic peptide (NZYtech, purity 95%)
For B2, the Kd [4] was 1.7 µM, the dH [4] was 0.8 kcal/mol and the “stoichiometry N” value [4] was 0.9. For the same molecule, the Kd [5] was 0.95 µM, the dH [5] was -3.7 kcal/mol and the “stoichiometry N” value [5] was 1.

B3: NLS-NUPR1 peptide K65AT68E (peptide)
peptide: Ac-YTNRPSPGGHERALVEKLQNSE-NH2
notes: tyrosine introduced at the N terminus for absorbance measurements; not a residue of NUPR1; also called K65AT68E peptide; source: synthetic peptide (NZYtech, purity 95%)
In the case of B3, the Kd [4] is reported as 21 µM, the dH [4] is reported as -7.8 kcal/mol and the Kd [5] is reported as 14 µM. For the same molecule, the dH [5] was -17.9 kcal/mol.

B4: NLS-NUPR1 peptide T68E (phospho-mimetic) (peptide)
peptide: Ac-YTNRPSPGGHERKLVEKLQNSE-NH2
notes: tyrosine introduced at the N terminus for absorbance measurements; not a residue of NUPR1; also called T68E peptide; Thr68Glu; source: synthetic peptide (NZYtech, purity 95%)
Work on B4 yielded a Kd [4] of 22 µM, a dH [4] of -11.1 kcal/mol and a Kd [5] of 12 µM. It also gave a dH [5] of -17.5 kcal/mol.

B5: NLS-NUPR1 peptide K65A (peptide)
peptide: Ac-YTNRPSPGGHERALVTKLQNSE-NH2
notes: tyrosine introduced at the N terminus for absorbance measurements; not a residue of NUPR1; also called K65A peptide; Lys65Ala; source: synthetic peptide (NZYtech, purity 95%)
For B5, the Kd [4] was 3.9 µM, the dH [4] was -2.8 kcal/mol and the “stoichiometry N” value [4] was 1.4. For the same molecule, the Kd [5] was 2.7 µM, the dH [5] was -10.2 kcal/mol and the “stoichiometry N” value [5] was 1.4.

B6: NLS-NUPR1 peptide T68EK69A (peptide)
peptide: Ac-YTNRPSPGGHERKLVEALQNSE-NH2
notes: tyrosine introduced at the N terminus for absorbance measurements; not a residue of NUPR1; also called T68EK69A peptide; source: synthetic peptide (NZYtech, purity 95%)
B6 gave a Kd [4] of 17 µM, a dH [4] of -7.5 kcal/mol and a Kd [5] of 17 µM. It also gave a dH [5] of -21.2 kcal/mol.

B7: NLS-NUPR1 peptide K69A (peptide)
peptide: Ac-YTNRPSPGGHERKLVTALQNSE-NH2
notes: tyrosine introduced at the N terminus for absorbance measurements; not a residue of NUPR1; also called K69A peptide; Lys69Ala; source: synthetic peptide (NZYtech, purity 95%)
In the case of B7, the Kd [4] is reported as 11 µM, the dH [4] is reported as -10.8 kcal/mol and the “stoichiometry N” value [4] is reported as 1.3. The Kd [5] was 7.6 µM, the dH [5] was -21.3 kcal/mol and the “stoichiometry N” value [5] was 1.4.

B8: NLS-NUPR1 peptide K65AT68EK69A (peptide)
peptide: Ac-YTNRPSPGGHERALVEALQNSE-NH2
notes: tyrosine introduced at the N terminus for absorbance measurements; not a residue of NUPR1; also called K65AT68EK69A peptide; triple mutant; source: synthetic peptide (NZYtech, purity 95%)
B8 gave a dH [4] of -16.3 kcal/mol, a Kd [5] of 24 µM and a dH [5] of -28.5 kcal/mol.
